Assay results as given in the supplement of paper PMC11780869.

Test system: Bacillus subtilis
Test: cleaved RNA product abundance (RNA/gDNA barcode ratio) relative to median wild-type variant (ratio to wild type); higher = more accumulation of the downstream cleavage product
Method in brief: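 Reporter mRNAs (truncated aprE or tetM) carrying barcoded, mutagenized RNase Y cleavage-site windows were made from oligos with a 9% error rate and integrated into the B. subtilis chromosome. Cultures grew in LB at 37°C from OD600 0.0003 to 0.3. Cleaved RNA was gel-selected, reverse transcribed and barcode-sequenced alongside genomic DNA barcodes, with UMI collapsing. Cleaved product abundance is the RNA:gDNA barcode ratio per variant, scaled to the median wild-type variant.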

[1] = experiment (reporter, strain, medium): exp 8a: truncated aprE reporter, strain BJT201 with 2% xylose (RNase J1 expressed), cleavage site: glnRA (positions -5 to +31 mutated)
[2] = experiment (reporter, strain, medium): exp 4a: truncated aprE reporter, strain BJT201 with 2% xylose (RNase J1 expressed), cleavage site: cggR-gapA (positions -7 to +36 mutated)
[3] = experiment (reporter, strain, medium): exp 2b: truncated aprE reporter, strain BJT200, cleavage site: cggR-gapA (positions -7 to +36 mutated)

Sequence: CGACATGTCCCGCTTCTTTCATTAATTCGTTAGCAAATGTTTTGCTATATACATTTACCTTTTAAGAGGAGGAAT
- cleaved RNA product abundance [1]: 0.87

Sequence: CGACATGTCCCGCTTCTTTCATTATTCCGTTAGCAACGGTTTTGCTATATACATTTACCTTTTAAGAGGAGGAAT
- cleaved RNA product abundance [1]: 0.56

Sequence: ACAGACGAAGGAGCCGCAAAGAAGTTATTAACGGATGAATAATCCCGCAATATAAATATCTCTCACTTATTTAAA
- cleaved RNA product abundance [2]: 0.392

Sequence: CGACATGTCCCGCTTCTTTCATTAATCCGTTACCAACTGTTTTGCTATATATATTTACCTTTTAAGAGGAGGAAT
- cleaved RNA product abundance [1]: 0.212

Sequence: CGACATGTCCCGCTTCTTTCATTAATGCGATAGCAACTGTTTTGCTATATACATTTACCTTTTAAGAGGAGGAAT
- cleaved RNA product abundance [1]: 0.395

Sequence: ACAGACGAAGGAGCCGCAAAGAAGTTATTCAGGTATGAATAATCCCTCAATATAAATATCTCTCACTTATTTAAA
- cleaved RNA product abundance [2]: 0.161

Sequence: ACAGACGAAGGAGCCGCAAAGAAGTTATTAAGGGATGAATCTTCCCTCAATATAAATATCTCTCACTTATTTAAA
- cleaved RNA product abundance [2]: 1.05

Sequence: CGACATGTCCCGCTTCTTTCATTAATCCGTTCGCAACTGTTTTGATATATACATTTACCTTTTAAGAGGAGGAAT
- cleaved RNA product abundance [1]: 0.334

Sequence: CGACATGTCCCGCTTCTTTCATTAATCCGTTAGCAACTATTCTGCTATATACATTTACCTTTTAAGAGGAGGAAT
- cleaved RNA product abundance [1]: 0.838

Sequence: ACAGACGAAGGAGCCGCAAAGAAGTTATTAATTGATGAATAATCCCTCAATATAAATATCTCTCACTTATTTAAA
- cleaved RNA product abundance [3]: 0.0997
- cleaved RNA product abundance [2]: 0.0964

Sequence: ACAGACGAAGGAGCCGCAAAAAAGTTATTAAGGGATGAAGAATCCCTCAATATAAATATCTCTCACTTATTTAAA
- cleaved RNA product abundance [2]: 0.918

Sequence: ACAGACGAAGGAGCCGCAAAGAAGTTATTAAGGGATGAATAATCCCTAAATATAAATATTTCTCACTTATTTAAA
- cleaved RNA product abundance [2]: 0.836

Sequence: ACAGACGAAGGAGCCGCAAAGAAGTTATTAAGGGATCAATAATACCTAAATATAAATATCTCTCACTTATTTAAA
- cleaved RNA product abundance [2]: 0.0917

Sequence: ACAGACGAAGGAGCCGCTAAGAAGTTATTAAAGGATGAATAATCCCTCAATATAAATATCTCTCACTTATTTAAA
- cleaved RNA product abundance [2]: 0.157

Sequence: CGACATGTCCCGCTTCTTTCATTAATCCGTTAGAAACTGTTTTGCTATATACATTAACCTTTTAAGAGGAGGAAT
- cleaved RNA product abundance [1]: 0.374

Sequence: CGACATGTCCCGCTTCTTTCATTAATCCGTTAGCAACTGTTTTGCAATATACATTTACCCTTTAAGAGGAGGAAT
- cleaved RNA product abundance [1]: 0.405

Sequence: CGACATGTCCCGCTTCTTTCATTAATCCGTTAGCAACTGATTTGCTATATACATATACCTTTTAAGAGGAGGAAT
- cleaved RNA product abundance [1]: 1

Sequence: CGACATGTCCCGCTTCTTTCATTAATACGTTACCAACTGTTTTGCTATATACATTTACCTTTTAAGAGGAGGAAT
- cleaved RNA product abundance [1]: 0.215

Sequence: CGACATGTCCCGCTTCTTTCATTAATCCGTTAGCAACATTTTTGCTATATACATTTACCTTTTAAGAGGAGGAAT
- cleaved RNA product abundance [1]: 1.12

Sequence: ACAGACGAAGGAGCCGCAAATAAGTTATTAAGGGATGAATAATCCTTCAATATAAATATCTCTCACTTATTTAAA
- cleaved RNA product abundance [3]: 0.395

Sequence: ACAGACGAAGGAGCCGCAAAGAAGTTATTAAGGGATTAATAATCCCTCAAAATAAATATCTCTCACTTATTTAAA
- cleaved RNA product abundance [3]: 0.334
- cleaved RNA product abundance [2]: 0.419

Sequence: ACAGACGAAGGAGCCGCAAAGAAGTTGTTAAGGGATGAATAATTCCTCAATATAAATATCTCTCACTTATTTAAA
- cleaved RNA product abundance [2]: 0.404

Sequence: CGACATGTCCCGCTTCTTTCATTATTCCGTTTGCAACTGTTTTGCTATATACATTTACCATTTAAGAGGAGGAAT
- cleaved RNA product abundance [1]: 0.356

Sequence: CGACATGTCCCGCTTCTTTCATTAATCCGTTAGCAACTGTTTTGCTAAAGACATTTACCTTTTAAGAGGAGGAAT
- cleaved RNA product abundance [1]: 0.0969

Sequence: CGACATGTCCCGCTTCTTTCATTAATCCGTTAGCAACTGTTTTGCTATATACAATTTACCTTTTAAGAGGAGGAA
- cleaved RNA product abundance [1]: 1.39

Sequence: ACAGACGAAGGAGCCGCAAAAAAGTTATTAAGGCATGAATAATCCCTCAATATAAATATCTCTCACTTATTTAAA
- cleaved RNA product abundance [3]: 0.104
- cleaved RNA product abundance [2]: 0.126

Sequence: ACAGACGAAGGAGCCGCAAAGAAGTTATTAAGGGATGCATAATCCCTCAATAAAAATATCTCTCACTTATTTAAA
- cleaved RNA product abundance [2]: 0.139

Sequence: ACAGACGAAGGAGCCGCAAACAAGTTATTAAGGGATGAATAATGCCTCAATATAAATATCTCTCACTTATTTAAA
- cleaved RNA product abundance [2]: 0.0993

Sequence: CGACATGTCCCGCTTCTTTCATTAATCCGTTAGCAACAGTTTTTCTATATACATTTACCTTTTAAGAGGAGGAAT
- cleaved RNA product abundance [1]: 0.345

Sequence: ACAGACGAAGGAGCCGCGAAGAAGTTATTAAGGCATGAATAATCCCTCAATATAAATATCTCTCACTTATTTAAA
- cleaved RNA product abundance [3]: 0.0773

Sequence: ACAGACGAAGGAGCCGCTAAGAAGTTATTAAGGGATGAATAATTCCTCAATATAAATATCTCTCACTTATTTAAA
- cleaved RNA product abundance [3]: 0.713

Sequence: CGACATGTCCCGCTTCTTTCATTAATCCGGTAGCAACTGTTTTGCTATATACATTTACCTTTTAAGAGGAGGAAT
- cleaved RNA product abundance [1]: 0.945

Sequence: ACAGACGAAGGAGCCGCAAAGAAGTTATTAAGGGCTGAATAATCCCTCAATATAAATAACTCTCACTTATTTAAA
- cleaved RNA product abundance [2]: 0.729

Sequence: ACAGACGAAGGAGCCGCAAAGAAGCTATTAAGGGATGAAAAATCCCTCAATATAAATATCTCTCACTTATTTAAA
- cleaved RNA product abundance [3]: 0.391
- cleaved RNA product abundance [2]: 0.491

Sequence: CGACATGTCCCGCTTCTTTCATTAATCCGTTATCAACTGTTTTGCGATATACATTTACCTTTTAAGAGGAGGAAT
- cleaved RNA product abundance [1]: 0.168

Sequence: ACAGACGAAGGAGCCGCAAAGAAGTTGTTAAGGGATGAATAATCCCTCAAAATAAATATCTCTCACTTATTTAAA
- cleaved RNA product abundance [2]: 0.316

Sequence: ACAGACGAAGGAGCCGCAAAGGAGTTATTAAGGGATGAATAATCCCTGAATATAAATATCTCTCACTTATTTAAA
- cleaved RNA product abundance [2]: 0.361

Sequence: ACAGACGAAGGAGCCGCAAATAAGTTATTAAGGGATGAATAATCCCACAATATAAATATCTCTCACTTATTTAAA
- cleaved RNA product abundance [3]: 0.233
- cleaved RNA product abundance [2]: 0.187

Sequence: ACAGACGAAGGAGCCGCAAATAAGTTATTAAGGGATGAAAAATCCCTCAATATAAATATCTCTCACTTATTTAAA
- cleaved RNA product abundance [3]: 0.805
- cleaved RNA product abundance [2]: 0.841
- cleaved RNA product abundance (experiment (reporter, strain, medium): exp 6: tetM reporter, strain 168, cleavage site: cggR-gapA (positions -7 to +36 mutated)): 0.882

Sequence: ACAGACGAAGGAGCCGCAAAGAAGTTATTAAGGGATGAATAATCCTTCAATGTAAATATCTCTCACTTATTTAAA
- cleaved RNA product abundance [2]: 0.167

Sequence: ACAGACGAAGGAGCCGCAAAGAAGTTATTAAGGAATGAATAATCCATCAATATAAATATCTCTCACTTATTTAAA
- cleaved RNA product abundance [3]: 0.0915
- cleaved RNA product abundance [2]: 0.124

Sequence: ACAGACGAAGGAGCCGCAAAAAAGTTATTAAGGGATGAATAATCCCTCAATATAAATCTCTCTCACTTATTTAAA
- cleaved RNA product abundance [2]: 0.362

Sequence: CGACATGTCCCGCTTCTTTCATTAATCCGTTAGCAACTTTTTTGCTATATACATTTACTTTTTAAGAGGAGGAAT
- cleaved RNA product abundance [1]: 1.37

Sequence: CGACATGTCCCGCTTCTTTCATTAAACCGTTAGAAACTGTTTTGCTATATACATTTACCTTTTAAGAGGAGGAAT
- cleaved RNA product abundance [1]: 0.147

Sequence: ACAGACGAAGGAGCCGCAAAGAAGTTATTAAGGGATTAATAATCCCTCAATATAATTATCTCTCACTTATTTAAA
- cleaved RNA product abundance [2]: 0.43

Sequence: CGACATGTCCCGCTTCTTTCATTATTCCTTTAGCAACTGTTTTGATATATACATTTACCTTTTAAGAGGAGGAAT
- cleaved RNA product abundance [1]: 0.465

Sequence: ACAGACGAAGGAGCCGCAAAGAAGTTGTTAAGGTATGAATAATCCCTCAATATAAATATCTCTCACTTATTTAAA
- cleaved RNA product abundance [2]: 0.12

Sequence: ACAGACGAAGGAGCCGCAAAGAAGTTATTAAGGAATGAATAATCCCTCAACATAAATATCTCTCACTTATTTAAA
- cleaved RNA product abundance [2]: 0.0941

Sequence: CGACATGTCCCGCTTCTTTCATTATTCTGTTAGCAACTGTTTTGCTATATACAGTTACCTTTTAAGAGGAGGAAT
- cleaved RNA product abundance [1]: 0.717

Sequence: ACAGACGAAGGAGCCGCAAAGAATTTATTAAGGGAGGAATAATCCCTCAATATAAATATCTCTCACTTATTTAAA
- cleaved RNA product abundance [2]: 0.459

Sequence: CGACATGTCCCGCTTCTTTCATTAATCCGTTAGCAACTGTTTTGCTACATACAATTACCTTTTAAGAGGAGGAAT
- cleaved RNA product abundance [1]: 0.348

Sequence: ACAGACGAAGGAGCCGCAAAGAAGTTATTAAGGGATGAATAATTCCTCATTATAAATATCTCTCACTTATTTAAA
- cleaved RNA product abundance [3]: 0.177
- cleaved RNA product abundance [2]: 0.306

Sequence: ACAGACGAAGGAGCCGCAAAGAAGTTATTAAGGGATGCGTAATCCCTCAATATAAATATCTCTCACTTATTTAAA
- cleaved RNA product abundance [2]: 0.629

Sequence: ACAGACGAAGGAGCCGCCAAGAAGTTATTAAGGGATGAATAATCCCTCACTATAAATATCTCTCACTTATTTAAA
- cleaved RNA product abundance [3]: 0.191

Sequence: ACAGACGAAGGAGCCGCCAAGAAATTATTAAGGGATGAATAATCCCTCAATATAAATATCTCTCACTTATTTAAA
- cleaved RNA product abundance [2]: 0.549

Sequence: ACAGACGAAGGAGCCGCAAAGAAGTTATTAAGGGATGAATAATACGTCAATATAAATATCTCTCACTTATTTAAA
- cleaved RNA product abundance [3]: 0.0926
- cleaved RNA product abundance [2]: 0.0816
